Experimental data reported in patent publication US20220259593A1, “CONTROL OF MAMMALIAN GENE DOSAGE USING CRISPR” (The Regents of the University of California, priority 2019, published 2022).
Positions count from the first letter of the chain named.

B1: cr010 (nucleic acid)
guide: GTTAAAGAGCTAAGCTGGAAACAGCATAGCAAGTTTAAATAAGGCTAGTCCGTTATCAACTTGAAAAAGTGGCACCGAGTCGGTGCT
modifications: listed as DNA, chemistry not fully specified
B2: cr680 (nucleic acid)
guide: B1 guide with A4T, G43C, C51G, T61A, A68T, A74T, T84A
modifications: listed as DNA, chemistry not fully specified
B3: cr830 (nucleic acid)
guide: B1 guide with A4T, T49G, G72T
modifications: listed as DNA, chemistry not fully specified
B4: cr641 (nucleic acid)
guide: B1 guide with A4T, T34G
modifications: listed as DNA, chemistry not fully specified
B5: cr378 (nucleic acid)
guide: B1 guide with A4T, A41G
modifications: listed as DNA, chemistry not fully specified
B6: cr542 (nucleic acid)
guide: B1 guide with A4T, T34A, T54C, A58G
modifications: listed as DNA, chemistry not fully specified
B7: cr950 (nucleic acid)
guide: B1 guide with A4T, A31T, T34G, T54G
modifications: listed as DNA, chemistry not fully specified
B8: cr958 (nucleic acid)
guide: B1 guide with A4T, G33C, C76T, G82A
modifications: listed as DNA, chemistry not fully specified
B9: cr030 (nucleic acid)
guide: B1 guide with T2C, A4T, A5T
modifications: listed as DNA, chemistry not fully specified
B10: cr492 (nucleic acid)
guide: B1 guide with A4T, A55C
modifications: listed as DNA, chemistry not fully specified
B11: cr933 (nucleic acid)
guide: B1 guide with A4T, T34G, G72T, C86A
modifications: listed as DNA, chemistry not fully specified
B12: cr935 (nucleic acid)
guide: B1 guide with A4T, A41G, A65C
modifications: listed as DNA, chemistry not fully specified
B13: cr012 (nucleic acid)
guide: B1 guide with A4G
modifications: listed as DNA, chemistry not fully specified
B14: cr700 (nucleic acid)
guide: B1 guide with A4T, A41T, A78C
modifications: listed as DNA, chemistry not fully specified
B15: cr320 (nucleic acid)
guide: B1 guide with A4T, A32T, A65G
modifications: listed as DNA, chemistry not fully specified
B16: cr627 (nucleic acid)
guide: B1 guide with A4T, G43T, C51A, A65G
modifications: listed as DNA, chemistry not fully specified
B17: cr009 (nucleic acid)
guide: B1 guide with T3G, A4T
modifications: listed as DNA, chemistry not fully specified
B18: cr080 (nucleic acid)
guide: B1 guide with G1T, A4T, A5T
modifications: listed as DNA, chemistry not fully specified
B19: cr581 (nucleic acid)
guide: B1 guide with A4T, A37T
modifications: listed as DNA, chemistry not fully specified
B20: cr043 (nucleic acid)
guide: B1 guide with T2G, A4T, A5T
modifications: listed as DNA, chemistry not fully specified
B21: cr096 (nucleic acid)
guide: B1 guide with A4T, A5G, A6T
modifications: listed as DNA, chemistry not fully specified
B22: cr386 (nucleic acid)
guide: B1 guide with A4T, T34G, T61C, A68G
modifications: listed as DNA, chemistry not fully specified
B23: cr048 (nucleic acid)
guide: B1 guide with G1T, A4C
modifications: listed as DNA, chemistry not fully specified
B24: cr737 (nucleic acid)
guide: B1 guide with A4T, C75G, C76G, G77C, A78T, C81G, G83C
modifications: listed as DNA, chemistry not fully specified
B25: cr570 (nucleic acid)
guide: B1 guide with A4T, G33C, A74T, T84A
modifications: listed as DNA, chemistry not fully specified
B26: cr547 (nucleic acid)
guide: B1 guide with A4T, A41G, G79A
modifications: listed as DNA, chemistry not fully specified
B27: cr961 (nucleic acid)
guide: B1 guide with A4T, T62C, A67G, G72C, C73A, G85T, C86G
modifications: listed as DNA, chemistry not fully specified
B28: cr032 (nucleic acid)
guide: B1 guide with T2A, A4T, A5G
modifications: listed as DNA, chemistry not fully specified
B29: cr410 (nucleic acid)
guide: B1 guide with A4T, A59G, A65G, T70C
modifications: listed as DNA, chemistry not fully specified
B30: cr454 (nucleic acid)
guide: B1 guide with A4T, G43T, C51A, A59C, T70G, C73T, G85A
modifications: listed as DNA, chemistry not fully specified
B31: cr952 (nucleic acid)
guide: B1 guide with A4T, A31T, T49G, T54A
modifications: listed as DNA, chemistry not fully specified
B32: cr757 (nucleic acid)
guide: B1 guide with A4T, G33C, T62A, A67T
modifications: listed as DNA, chemistry not fully specified
B33: cr745 (nucleic acid)
guide: B1 guide with A4T, G43A
modifications: listed as DNA, chemistry not fully specified
B34: cr922 (nucleic acid)
guide: B1 guide with A4T, T34G, C75A, G83T
modifications: listed as DNA, chemistry not fully specified
B35: cr946 (nucleic acid)
guide: B1 guide with A4T, G43C, C51G, T62G, A67C, A74G, T84C
modifications: listed as DNA, chemistry not fully specified
B36: cr986 (nucleic acid)
guide: B1 guide with A4T, T49G
modifications: listed as DNA, chemistry not fully specified
B37: cr496 (nucleic acid)
guide: B1 guide with A4T, G29A, G52T, T80A
modifications: listed as DNA, chemistry not fully specified
B38: cr095 (nucleic acid)
guide: B1 guide with T3A, A4T, A8T
modifications: listed as DNA, chemistry not fully specified
B39: cr633 (nucleic acid)
guide: B1 guide with A4T, A28G, G33T, A42C
modifications: listed as DNA, chemistry not fully specified
B40: cr085 (nucleic acid)
guide: B1 guide with A4T, A5T, A6T
modifications: listed as DNA, chemistry not fully specified
B41: cr711 (nucleic acid)
guide: B1 guide with A4T, T34G, G72C, C86G
modifications: listed as DNA, chemistry not fully specified

System: K562 CRISPRi cells
Experiment: Constant region variant library pooled growth screen, K562
Type: cell-based, human
Procedure, shortened: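 Cells were selected with puromycin for 2 days and then kept in RPMI-1640 spinner cultures, with duplicates handled separately. Targeting sequences comprised 3 sgRNAs per essential gene for 10 genes plus six non-targeting controls. Activities were normalized against pairing with the unmodified scaffold.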

[1] = sgRNA constant region variants, activity relative to the original, un-modified constant region cr995
[2] = sgRNA constant region variant, activity relative to unmodified constant region cr995, mean CRISPRi activity

| Molecule | Mean relative activity [1] | Mean relative activity [2] |
| --- | --- | --- |
| B1 | 0.02976 |  |
| B2 |  | 0.02086 |
| B3 | 0.02925 |  |
| B4 | 0.02687 |  |
| B5 | 0.02893 |  |
| B6 | 0.02115 |  |
| B7 | 0.0224 |  |
| B8 | 0.0249 |  |
| B9 | 0.02089 |  |
| B10 | 1.034 |  |
| B11 | 0.0286 |  |
| B12 | 0.02413 |  |
| B13 | 0.02769 |  |
| B14 | 0.02103 |  |
| B15 | 1.035 |  |
| B16 | 0.02763 |  |
| B17 | 0.02783 |  |
| B18 | 0.02323 |  |
| B19 | 0.02488 |  |
| B20 | 0.0245 |  |
| B21 | 0.02764 |  |

| Molecule | Mean relative activity [1] | Mean relative activity [2] |
| --- | --- | --- |
| B22 | 0.02428 |  |
| B23 | 0.02761 |  |
| B24 | 0.02539 |  |
| B25 | 0.02846 |  |
| B26 | 0.02194 |  |
| B27 | 1.088 |  |
| B28 | 0.02646 |  |
| B29 | 1.034 |  |
| B30 | 0.02618 |  |
| B31 | 0.02621 |  |
| B32 | 0.02851 |  |
| B33 | 0.02631 |  |
| B34 | 0.02327 |  |
| B35 | 0.0237 |  |
| B36 | 0.0258 |  |
| B37 |  | 0.02078 |
| B38 | 0.02974 |  |
| B39 | 0.02445 |  |
| B40 | 0.02666 |  |
| B41 | 0.0267 |  |
